In general, Kd refers to the equilibrium constant for the complex coming apart.

Series [1] relates to RNA polymerase holoenzyme (Escherichia coli). Particulars: CITED; cited from earlier work.
The next series relates to EcoRI E111Q E111Q. Particulars: CITED F17; cited from earlier work.
A further series deals with EcoRI. The following applies: CITED F17; cited from earlier work.
The next series addresses LacI (UniProt P03023). Particulars: CITED F24; cited from earlier work.
In another series the target is Mlh1-Pms1 (Saccharomyces cerevisiae, UniProt P38920;P14242 P38920:1-769,P14242:1-873). Nature of the series: EMSA; 25 mM Hepes pH 7.6, 50 mM NaCl, RT; QD/antibody labelling did not disrupt binding. Particulars: tags: FLAG inserted after T448 or Y499 of Mlh1 and/or HA after D565 of Pms1, anti-tag quantum dots; chain copies: heterodimer (stated); label: 5'-32P. (A gel shift assay detects complexes by their altered migration in electrophoresis.)
Mlh1-Pms1, sequence (P38920 whole entry, chain 1 of 2): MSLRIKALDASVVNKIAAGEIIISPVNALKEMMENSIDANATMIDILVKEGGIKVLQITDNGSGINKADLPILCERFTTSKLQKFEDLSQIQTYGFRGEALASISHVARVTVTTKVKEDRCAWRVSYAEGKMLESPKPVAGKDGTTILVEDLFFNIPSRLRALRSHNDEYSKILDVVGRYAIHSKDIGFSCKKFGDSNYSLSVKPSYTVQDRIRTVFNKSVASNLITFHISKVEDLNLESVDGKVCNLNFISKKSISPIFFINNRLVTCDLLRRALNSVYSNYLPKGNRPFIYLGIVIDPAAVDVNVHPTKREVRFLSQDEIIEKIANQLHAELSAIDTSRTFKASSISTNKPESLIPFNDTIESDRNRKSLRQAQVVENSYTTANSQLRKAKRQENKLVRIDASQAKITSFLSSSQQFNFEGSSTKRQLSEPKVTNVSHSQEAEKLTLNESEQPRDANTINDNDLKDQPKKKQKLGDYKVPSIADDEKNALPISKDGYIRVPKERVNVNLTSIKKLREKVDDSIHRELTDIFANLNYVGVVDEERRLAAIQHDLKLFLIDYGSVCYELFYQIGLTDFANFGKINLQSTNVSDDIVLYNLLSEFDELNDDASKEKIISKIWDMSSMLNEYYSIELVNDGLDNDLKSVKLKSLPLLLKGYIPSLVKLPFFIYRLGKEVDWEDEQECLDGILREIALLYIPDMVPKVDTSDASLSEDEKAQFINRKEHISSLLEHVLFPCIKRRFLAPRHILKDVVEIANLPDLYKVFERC
Mlh1-Pms1, sequence (P14242 whole entry, chain 2 of 2): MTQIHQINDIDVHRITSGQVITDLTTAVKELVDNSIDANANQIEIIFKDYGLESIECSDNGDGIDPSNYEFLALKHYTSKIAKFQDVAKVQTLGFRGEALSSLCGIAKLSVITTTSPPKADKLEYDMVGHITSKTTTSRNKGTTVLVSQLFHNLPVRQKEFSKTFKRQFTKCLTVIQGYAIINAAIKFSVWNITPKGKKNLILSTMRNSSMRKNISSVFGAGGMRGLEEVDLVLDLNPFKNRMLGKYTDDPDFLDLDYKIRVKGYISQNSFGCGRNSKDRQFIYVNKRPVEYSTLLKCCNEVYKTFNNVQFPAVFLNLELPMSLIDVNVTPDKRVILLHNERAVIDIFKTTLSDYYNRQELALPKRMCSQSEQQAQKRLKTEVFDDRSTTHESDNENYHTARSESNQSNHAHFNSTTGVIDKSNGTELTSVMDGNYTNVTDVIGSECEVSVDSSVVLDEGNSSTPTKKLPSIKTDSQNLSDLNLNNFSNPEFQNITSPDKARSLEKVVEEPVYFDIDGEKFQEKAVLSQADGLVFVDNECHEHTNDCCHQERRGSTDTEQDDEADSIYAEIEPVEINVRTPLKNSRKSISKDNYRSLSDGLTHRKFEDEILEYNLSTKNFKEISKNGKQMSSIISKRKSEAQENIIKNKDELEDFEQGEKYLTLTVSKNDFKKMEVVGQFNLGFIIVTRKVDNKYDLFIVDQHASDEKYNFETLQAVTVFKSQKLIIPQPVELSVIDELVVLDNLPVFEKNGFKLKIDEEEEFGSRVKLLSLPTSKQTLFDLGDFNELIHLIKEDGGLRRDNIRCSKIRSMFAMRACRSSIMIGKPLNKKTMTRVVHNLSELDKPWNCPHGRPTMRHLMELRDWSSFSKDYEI

LacI, sequence (P03023 whole entry): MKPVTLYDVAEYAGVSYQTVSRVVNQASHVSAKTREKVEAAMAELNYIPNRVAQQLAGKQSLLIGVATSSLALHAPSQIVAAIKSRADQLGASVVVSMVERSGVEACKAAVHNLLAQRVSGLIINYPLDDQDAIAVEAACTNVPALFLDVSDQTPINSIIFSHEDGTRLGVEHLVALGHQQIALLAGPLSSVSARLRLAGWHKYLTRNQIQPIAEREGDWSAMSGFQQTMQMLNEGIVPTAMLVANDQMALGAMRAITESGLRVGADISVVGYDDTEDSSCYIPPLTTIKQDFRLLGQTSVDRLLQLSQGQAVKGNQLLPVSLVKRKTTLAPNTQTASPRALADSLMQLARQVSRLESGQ
Method for Mlh1-Pms1: Ensemble characterization of Mlh-Pms1 DNA-binding activity. […] Samples were loaded on 4% (w/v) non-denaturing polyacrylamide gels containing 0.5×TBE and electrophoresed at 130 V for 1 hour at RT. Gels were dried on 3mM Whatman paper and visualized by Phosphorlmaging. Analysis was done using ImageJ.

Consider lambda PL promoter, for which, in series [1], the dissociation constant Kd is 100 pM. Turning to EcoRI cognate site DNA, the Kd was 0.0025 pM with EcoRI E111Q E111Q and 6.7 pM in the series on EcoRI.

For the molecule nonspecific DNA, the values for the dissociation constant Kd in the series on EcoRI E111Q E111Q and with LacI were 4.8 pM and above 1000 pM, respectively. As for lambda PR promoter, the Kd in series [1] is 10 pM.

B1: 40 bp S1/S2 duplex (dsDNA)
DNA 1: ACCGAATTCTGACTTGCTAGGACATCTTTGCCCACGTTGA
DNA 2: TCAACGTGGGCAAAGATGTCCTAGCAAGTCAGAATTCGGT
For the molecule B1, in the series with Mlh1-Pms1, the binding result is “binds”.

The record behind these values is patent publication US20110136676, “GEOMETRIC PATTERNS AND LIPID BILAYERS FOR DNA MOLECULE ORGANIZATION AND USES THEREOF” (published 2011).
